B1: GST-NP(412-500) (domain or fragment)
chain: ASLPKTSGHYDDDDDIPFPGPINDDDNPGHQDDDPTDSQDTTIPDVVVDPDDGSYGEYQSYSENGMNAPDDLVLFDLDEDDEDTKPVPN

What follows are binders tested against T1, His-tagged VP35 IID (VP35 aa 215-340) (Ebola virus (EBOV), UniProt Q05127 215-340) (assay: pull-down).
T1 sequence: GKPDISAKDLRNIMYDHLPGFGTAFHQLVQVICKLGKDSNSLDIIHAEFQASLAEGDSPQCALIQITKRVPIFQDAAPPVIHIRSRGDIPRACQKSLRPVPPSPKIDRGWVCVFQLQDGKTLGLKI

Does DDLVLFDLDEDDEDTKPVPN (domain or fragment) [GST-NP(481-500)] bind?
Result: binds

Does DDLVLFDLDEDDED (domain or fragment) [GST-NP(481-494)] bind?
Result: binds

Does B1 bind?
Result: binds
